Test [1] addresses human CD3εδ (human) (UniProt P07766). Put plainly: SPR, Biacore T200; human CD3εδ immobilised on CM5 chip, antibody as analyte (Example 2-3). (Surface plasmon resonance follows binding to a sensor surface in real time, without labels.)
Test [2] deals with human CD3 on T cells of human peripheral blood mononuclear cells (human) (UniProt P07766). Nature of the test: cell-based or functional assay.
The target of test [3] is human CD3εδ (human) (UniProt P07766). Nature of the test: SPR, Biacore T200; ratio between the KD values on CD3εδ and CD3εγ.
The next test concerns the target human CD3εγ (human) (UniProt P07766). Nature of the test: SPR, Biacore T200; human CD3εγ immobilised on CM5 chip, antibody as analyte.
The target of test [4] is human CD3εδ (human) (UniProt P07766). Nature of the test: SPR, Biacore T200; human CD3εδ immobilised on CM5 chip, antibody as analyte.

By Kd is commonly meant the concentration at which binding is half-saturated. Read a high Kd as a looser complex.

human CD3 on T cells of human peripheral blood mononuclear cells (human), sequence (P07766 23-207, chain 1 of 3): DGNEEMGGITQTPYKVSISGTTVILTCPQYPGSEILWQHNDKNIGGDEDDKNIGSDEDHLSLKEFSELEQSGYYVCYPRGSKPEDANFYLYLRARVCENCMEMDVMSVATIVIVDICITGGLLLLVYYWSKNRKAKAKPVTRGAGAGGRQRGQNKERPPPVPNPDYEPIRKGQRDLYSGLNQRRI
human CD3 on T cells of human peripheral blood mononuclear cells (human), sequence (P04234 22-171, chain 2 of 3, further chain): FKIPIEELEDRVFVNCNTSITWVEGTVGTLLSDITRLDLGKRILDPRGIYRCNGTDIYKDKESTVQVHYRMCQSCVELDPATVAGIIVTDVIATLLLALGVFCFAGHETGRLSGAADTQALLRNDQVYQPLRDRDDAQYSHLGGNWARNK
human CD3 on T cells of human peripheral blood mononuclear cells (human), sequence (P09693 23-182, chain 3 of 3, further chain): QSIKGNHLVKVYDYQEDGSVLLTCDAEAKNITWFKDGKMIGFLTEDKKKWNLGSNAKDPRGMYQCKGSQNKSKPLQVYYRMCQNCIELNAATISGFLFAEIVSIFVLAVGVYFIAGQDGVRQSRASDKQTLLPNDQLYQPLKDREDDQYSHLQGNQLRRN
human CD3εδ (human), sequence (P07766 23-126, stated change not applied, chain 1 of 2): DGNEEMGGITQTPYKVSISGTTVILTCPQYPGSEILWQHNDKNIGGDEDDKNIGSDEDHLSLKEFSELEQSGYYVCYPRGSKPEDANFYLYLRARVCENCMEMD
human CD3εδ (human), sequence (P04234 22-105, stated change not applied, chain 2 of 2, further chain): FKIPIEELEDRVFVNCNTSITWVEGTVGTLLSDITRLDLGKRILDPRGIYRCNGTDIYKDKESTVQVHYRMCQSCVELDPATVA
human CD3εγ (human), sequence (P07766 23-126, chain 1 of 2): as the sequence (P07766 23-126, stated change not applied, chain 1 of 2) above
human CD3εγ (human), sequence (P09693 23-116, chain 2 of 2, further chain): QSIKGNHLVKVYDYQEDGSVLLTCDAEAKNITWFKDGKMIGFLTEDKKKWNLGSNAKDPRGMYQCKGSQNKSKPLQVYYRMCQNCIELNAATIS

In turn, CD3 (UCHT1)-binding monoclonal antibody came in with a Kd with human CD3εδ (human) [1] of 34.1 pM. Also, in test [2], the Death of cancer cells, EC50 nM (MDA-MB-231 + human PBMC, 48 h) is 0.0005 nM; the Death of cancer cells, Emax (%) came to 46%; the IFNγ release, EC50 nM stood at 0.003 nM; the IFNγ release, Maximum concentration stood at 16 ng/mL. Moreover, in test [2], the T cell activation (CD3+ CD8+ CD69+), human PBMC alone without target cells came to 60%. The ratio of the binding strength to CD3εδ / binding strength to CD3εγ in the test with human CD3εδ (human) [3] is 19.3 fold. The substance further showed a Kd in the test with human CD3εγ (human) of 272 pM. This substance returned a Kd with human CD3εδ (human) [4] of 14.1 pM.

Source of the values: patent EP4682170A1.
